From the supplement of paper PMC9170038

Experiments:
[1] = system: MS2 coat protein; experiment: apparent KD of MS2 coat protein, switch OFF state (with FMN for OFF switches, without FMN for ON switches); designed switch direction (-1 OFF switch, 1 ON switch): -1; higher = weaker reporter binding; conditions: FMN input: 0 or 200 uM; Eterna round: R93 (includes R88 designs)
Method in brief: (§1)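 With or without constant ligand, designed RNA switches in 100 mM Tris-HCl pH 7.5, 80 mM KCl and 4 mM MgCl2 were titrated with SNAP-549-labelled MS2 coat protein. Concentrations went up in twofold steps from 0.7 or 1.5 nM to 3 µM. The switches had been transcribed on-chip from Illumina sequencing clusters, and apparent KD is the per-design median of normalised cluster binding-curve fits.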

[2] = system: MS2 coat protein; experiment: apparent KD of MS2 coat protein, switch ON state; designed switch direction (-1 OFF switch, 1 ON switch): -1; higher = weaker reporter binding; conditions: FMN input: 0 or 200 uM; Eterna round: R93 (includes R88 designs)
Method in brief: as §1

Sequence | apparent KD of MS2 coat protein [1] | apparent KD of MS2 coat protein [2]
AACUAGUGAGGAUAUACAAGAAAAAAAAAAAAAAUAAAGGGACAUGAGGAUCACCCAUGUAGAAGGCACUAACA [Diamond 69] | 64.9 nM | 37.7 nM
GGAAAGCAAGGAUAUACAAACAAACAAACAAACAAAAGGGAACAUGAGGAUCACCCAUGUAGAAGGUGCAAACA [Exclusion 2 XX] | 31.8 nM | 41 nM
AGGAGACAUGAGGAUCACCCAUGUUAGGAUAUGAACGAAAUAAAAUAAAAAUAAAAGUUCAGAAGGAACGAAAA [Mat - Exclusion 1 - Eli mod - D10] | 56.6 nM | 34.6 nM
GUAGUGUGAGGAUAUGGAAAGAAGAAGAAAAGGUAGAAAAACUAGAAGGCACAUGAGGAUCACCCAUGUAAGAA [JR_Exc004_Sub1710] | 20.3 nM | 29.1 nM
AAUAAGUGAGGAUAUGUGAAUAGUAGAUAAGAUUCCCUAAAACAGAAGGCACAUGAGGAUCACCCAUGUAAAUA [JR_Exc004_Sub008] | 24.1 nM | 26.2 nM
AAAAAUUGAGGAUAUACAUGAGGAUCACCCAUGUUAGACCUAAAAAAAGGGAAAGAAAGUAGAAGGCAAUAAAA [Ex 3 May 28] | 18.8 nM | 14.6 nM
AACAGUACAGGAUAUACAUGAGGAUCACCCAUGUGGGUAAAAAGAUCGAGAGAUCCAUGUAGAAGGGUACUGGA [JL In the Red 05] | 37.9 nM | 36.7 nM
AGCUAGUGAGGAUAUACGAACAAGUCAACGGACUGUAAGGGACAUGAGGAUCACCCAUGUAGAAGGCACUAGCA [Diamond 58] | 148 nM | 29.4 nM
AAAAAAGCAGGAUAUACGAACAUGUCAAAAGACGUGAAGGGACAUGAGGAUCACCCAUGUAGAAGGGUUAAAAA [JL Stem Breaker 5] | 53.6 nM | 198 nM
CAAAGGUGAGGAUAUACAAAACUAUGACGAAAGUCAUAAAAACAUGAGGAUCACCCAUGUAGAAGGCACCACAA [E2 64% 2] | 23.7 nM | 31.6 nM
CUCAUGUCAGGAUAUCCAUGAAAUGAAGUGAAAGAAAAGAAGGAGAAGGGACAUGAGGAUCACCCAUGUUAGAA [EteRNA is fun!] | 17.1 nM | 34.1 nM
AAAAAGCGAGGAUAUACGAGUCAAAGAAAAGACAAGGAGAAACAUGAGGAUCACCCAUGUAGAAGGCGCAAAAA [Fiskers exclusion D2] | 25.3 nM | 21.8 nM
AAAAAUGGAGGAUAUACAUGAGGAUCACCCAUGUGUAACUAUACAAAACACAAAAAAAGUAGAAGGCCAAAAAA [Gilly Gone Silly 7 - Jieux - Exclusion 3] | 19.3 nM | 20.1 nM
AUCGAUCGAGGAUAUACAUGAGGAUCACCCAUGUAAAAAAAAAAAAAGUCCUCAGGACGUAGAAGGCGACGCAA [JR_Exc003_Sub401] | 22.3 nM | 16.6 nM
AAAAAAAGAGGAUAUACGUACAUGUCGAAAGACGUGAAGGGACAUGAGGAUCACCCAUGUAGAAGGUUUAAAAA [Mat - Exclusion 2 - JL mod - D84] | 15.8 nM | 33.8 nM
AAAAAGUGAGGAUAUACGUUGAAAAAAAAAAAAAAAAAGGCGUAGAAGGCACAUGAGGAUCACCCAUGUAAAAA [Ex4 Malc#5] | 77.4 nM | 56 nM
GCUUGGGUAGGAUAUACAUGAGGAUCACCCAUGUGAGAGAAAAAAGUGAGAAAGAAAAGUAGAAGGACCUGAGG [salish99-ex3-107] | 244 nM | 123 nM
AACAAGACAGGAUAUACAUGAGGAUCACCCAUGUGAGAAUUAAGUGGCGUACCACAAGGUAGAAGGGUCAUGGA [Ruby 3] | 57.6 nM | 34.2 nM
CACGUACAUGAGGAUCACCCAUGUUAGGAUAUGCCGGGUAAGAGAAAACAAAAAAUCAGCAGAAGGAACGAAAC [Bilbo Confounded 18 - Jieux - Exclusion 1] | 28.5 nM | 28.2 nM
